# Measured values published in patent publication US20220306744A1 (CRESCENDO BIOLOGICS, published 2022).
# Molecular target: T1, human PD-1 expressed on cells (CHO TREX human PD1 cell line, full-length human PD-1 sequence) (human, UniProt Q15116 21-288)
# T1 construct: Also used for human PD-1 on Jurkat reporter cells, on PathHunter cells and on PHA-stimulated human CD4+ T cells; also called CHO human PD1 cells; CHO human PD-1 cells
# Assay: worded summary of the screens
# T1 sequence (Q15116 21-288): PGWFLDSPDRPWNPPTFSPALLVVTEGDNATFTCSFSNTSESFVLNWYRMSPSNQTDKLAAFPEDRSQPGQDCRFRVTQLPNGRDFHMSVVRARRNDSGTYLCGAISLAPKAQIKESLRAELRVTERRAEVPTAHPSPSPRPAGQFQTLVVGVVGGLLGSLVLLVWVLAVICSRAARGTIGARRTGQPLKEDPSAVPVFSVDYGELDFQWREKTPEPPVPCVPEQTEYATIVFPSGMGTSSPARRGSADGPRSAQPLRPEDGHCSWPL
row,binding result,Binder
1,binds,1.51a (VHH) VHH: EVQLVESGGGVVRPGGSLRLSCAASGFTFDDYAMSWVRQAPGKGLEWVSGITWNGGSTGYADSVKDRFTISRDNAKNSLYLQMNSLRAEDTALYYCVRDKYSYAWSYDGFDIWGQGTMVTVSS
2,binds,1.23a (VHH) VHH: EVQLVESGGGLVQPGRSLRLSCAASGFTFDDYAMHWVRQAPGKDLEWVSGISWNSGSMGYAASVKGRFTISRDNAKNSLYLQMNSLRAEDTALYYCVREKGPGLTGSTADYYGLDVWGQGTMVTVSS
3,binds,1.44a (VHH) VHH: EVQLVESGGGLVQPGRSLRLSCAASGFTFDDYALHWVRQAPGKDLEWVSGISWNSGSYGYADSVKGRFTISRDNAKNSLYLQMNSLRAEDTALYYCVREKGPGLTGSTADYYGLDAWGQGTMVTVSS
4,binds,1.48a (VHH) VHH: EVQLVESGGGLVQPGRSLRLSCAASGFTFDDYALHWVRQAPGKDLEWVSGISWNSGSQGYADSVKGRFTISRDNAKNSLYLQMNSLRAEDTALYYCVREKGPGLTGSTADYYGLDAWGQGTMVTVSS
5,binds,1.37a (VHH) VHH: EVQLVESGGGLVQPGRSLRLSCAASGFTFDDYAFHWVRQAPGKDLEWVSGISWNGGSMGYADSVKGRFTISRDNAKNSLYLQMNSLRAEDTALYYCVREKGPGLTGSTADYYGLDAWGQGTMVTVSS
6,binds,1.25a (VHH) VHH: EVQLVESGGGLVQPGRSLRLSCAASGFTFDDYAMHWVRQAPGKDLEWVSGISWNGGSQGYAASVKGRFTISRDNAKNSLYLQMNSLRAEDTALYYCVREKGPGLTGSTADYYGLDAWGQGTMVTVSS
7,binds,1.28a (VHH) VHH: EVQLVESGGGLVQPGRSLRLSCAASGFTFDDYAMHWVRQAPGKDLEWVSGISWNAGSMGYAASVKGRFTISRDNAKNSLYLQMNSLRAEDTALYYCVREKGPGLTGSTADYYGLDAWGQGTMVTVSS
8,binds,1.35a (VHH) VHH: EVQLVESGGGLVQPGRSLRLSCAASGFTFDDYAMHWVRQAPGKDLEWVSGISWNGGSKGYADSVKGRFTISRDNAKNSLYLQMNSLRAEDTALYYCVREKGPGLTGSTADYYGLDAWGQGTMVTVSS
9,binds,1.40a (VHH) VHH: EVQLVESGGGLVQPGRSLRLSCAASGFTFDDYALHWVRQAPGKDLEWVSGISWNGGSQGYADSVKGRFTISRDNAKNSLYLQMNSLRAEDTALYYCVREKGPGLTGSTADYYGLDAWGQGTMVTVSS
10,binds,1.36a (VHH) VHH: EVQLVESGGGLVQPGRSLRLSCAASGFTFDDYAMHWVRQAPGKDLEWVSGISWNAGSMGYADSVKGRFTISRDNAKNSLYLQMNSLRAEDTALYYCVREKGPGLTGSTADYYGLDAWGQGTMVTVSS
11,binds,1.33a (VHH) VHH: EVQLVESGGGLVQPGRSLRLSCAASGFTFDDYAMHWVRQAPGKDLEWVSGISWNGGSYGYADSVKGRFTISRDNAKNSLYLQMNSLRAEDTALYYCVREKGPGLTGSTADYYGLDAWGQGTMVTVSS
12,binds,1.46a (VHH) VHH: EVQLVESGGGLVQPGRSLRLSCAASGFTFDDYALHWVRQAPGKDLEWVSGISWNAGSYGYADSVKGRFTISRDNAKNSLYLQMNSLRAEDTALYYCVREKGPGLTGSTADYYGLDAWGQGTMVTVSS
13,binds,1.43a (VHH) VHH: EVQLVESGGGLVQPGRSLRLSCAASGFTFDDYAFHWVRQAPGKDLEWVSGISWNAGSYGYADSVKGRFTISRDNAKNSLYLQMNSLRAEDTALYYCVREKGPGLTGSTADYYGLDAWGQGTMVTVSS
14,binds,1.50a (VHH) VHH: EVQLVESGGGLVQPGRSLRLSCAASGFTFDDYAFHWVRQAPGKDLEWVSGISWNAGSQGYADSVKGRFTISRDNAKNSLYLQMNSLRAEDTALYYCVREKGPGLTGSTADYYGLDAWGQGTMVTVSS
15,binds,1.34a (VHH) VHH: EVQLVESGGGLVQPGRSLRLSCAASGFTFDDYAMHWVRQAPGKDLEWVSGISWNGGSQGYADSVKGRFTISRDNAKNSLYLQMNSLRAEDTALYYCVREKGPGLTGSTADYYGLDAWGQGTMVTVSS
16,binds,1.38a (VHH) VHH: EVQLVESGGGLVQPGRSLRLSCAASGFTFDDYALHWVRQAPGKDLEWVSGISWNGGSMGYADSVKGRFTISRDNAKNSLYLQMNSLRAEDTALYYCVREKGPGLTGSTADYYGLDAWGQGTMVTVSS

row,binding result,Binder
1,binds,1.49a (VHH) VHH: EVQLVESGGGLVQPGRSLRLSCAASGFTFDDYAFHWVRQAPGKDLEWVSGISWNSGSQGYADSVKGRFTISRDNAKNSLYLQMNSLRAEDTALYYCVREKGPGLTGSTADYYGLDAWGQGTMVTVSS
2,binds,1.29a (VHH) VHH: EVQLVESGGGLVQPGRSLRLSCAASGFTFDDYAMHWVRQAPGKDLEWVSGISWNSGSMGYADSVKGRFTISRDNAKNSLYLQMNSLRAEDTALYYCVREKGPGLTGSTADYYGLDVWGQGTMVTVSS
3,binds,1.32a (VHH) VHH: EVQLVESGGGLVQPGRSLRLSCAASGFTFDDYAMHWVRQAPGKDLEWVSGISWNSGSMGYADSVKGRFTISRDNAKNSLYLQMNSLRAEDTALYYCVREKGPGLTGSTADYYGLDAWGQGTMVTVSS
4,binds,1.45a (VHH) VHH: EVQLVESGGGLVQPGRSLRLSCAASGFTFDDYALHWVRQAPGKDLEWVSGISWNAGSQGYADSVKGRFTISRDNAKNSLYLQMNSLRAEDTALYYCVREKGPGLTGSTADYYGLDAWGQGTMVTVSS
5,binds,1.47a (VHH) VHH: EVQLVESGGGLVQPGRSLRLSCAASGFTFDDYAFHWVRQAPGKDLEWVSGISWNSGSYGYADSVKGRFTISRDNAKNSLYLQMNSLRAEDTALYYCVREKGPGLTGSTADYYGLDAWGQGTMVTVSS
6,binds,1.27a (VHH) VHH: EVQLVESGGGLVQPGRSLRLSCAASGFTFDDYAMHWVRQAPGKDLEWVSGISWNGGSRGYAASVKGRFTISRDNAKNSLYLQMNSLRAEDTALYYCVREKGPGLTGSTADYYGLDAWGQGTMVTVSS
7,binds,1.41a (VHH) VHH: EVQLVESGGGLVQPGRSLRLSCAASGFTFDDYAFHWVRQAPGKDLEWVSGISWNGGSYGYADSVKGRFTISRDNAKNSLYLQMNSLRAEDTALYYCVREKGPGLTGSTADYYGLDAWGQGTMVTVSS
8,binds,1.24a (VHH) VHH: EVQLVESGGGLVQPGRSLRLSCAASGFTFDDYAMHWVRQAPGKDLEWVSGISWNSGSMGYAASVKGRFTISRDNAKNSLYLQMNSLRAEDTALYYCVREKGPGLTGSTADYYGLDAWGQGTMVTVSS
9,binds,1.42a (VHH) VHH: EVQLVESGGGLVQPGRSLRLSCAASGFTFDDYAFHWVRQAPGKDLEWVSGISWNGGSQGYADSVKGRFTISRDNAKNSLYLQMNSLRAEDTALYYCVREKGPGLTGSTADYYGLDAWGQGTMVTVSS
10,binds,1.30a (VHH) VHH: EVQLVESGGGLVQPGRSLRLSCAASGFTFDDYAGHWVRQAPGKDLEWVSGISWNGGSMGYAASVKGRFTISRDNAKNSLYLQMNSLRAEDTALYYCVREKGPGLTGSTADYYGLDAWGQGTMVTVSS
11,binds,"1.39a (VHH, also called Humabody 1.39a) VHH: EVQLVESGGGLVQPGRSLRLSCAASGFTFDDYALHWVRQAPGKDLEWVSGISWNGGSYGYADSVKGRFTISRDNAKNSLYLQMNSLRAEDTALYYCVREKGPGLTGSTADYYGLDAWGQGTMVTVSS"
12,binds,1.31a (VHH) VHH: EVQLVESGGGLVQPGRSLRLSCAASGFTFDDYALHWVRQAPGKDLEWVSGISWNGGSMGYAASVKGRFTISRDNAKNSLYLQMNSLRAEDTALYYCVREKGPGLTGSTADYYGLDAWGQGTMVTVSS
13,binds,1.17a (VHH) VHH: EVQLLESGGGLVQPGGSLRLSCAASGFTFDDYAMHWVRQAPGKGLEWVSGISWNSGSMGYAASVKDRFTISRDNAKNSLYLQMNSLTTEDTALYYCVKDKGPGLIGSTADYHGLDVWGQGTTVTVSS
14,binds,1.6a (VHH) VHH: EVQLVESGGGVVQPGRSLRLSCAASGFTFSSYAMHWVRQAPGKGREWVSGISWNSGSMGYAESVKGRFTISRDNAKNSLYLQMNSLRAEDSALYYCVKDKGPGLTGTTADYYGMDVWGQGTTVTVSS
15,binds,1.7a (VHH) VHH: EVQLVESGGGVIQPGRSLRLSCAASGFTFDDYAMHWVRQAPGKGREWVSGISWNGGSMGYAESVKGRFTISRDNAQNSLYLQMNSLRAEDSALYYCVKDKGPGLTGTTADYYGMDVWGQGTTVTVSS
16,binds,1.15a (VHH) VHH: EVQLLESGGGLVQPGRSLRLSCTASGFTFDDYAMHWVRQAPGKGREWVSGISWNSGSMGYAESVKGRFTISRDNAKNSLYLQMNSLRAEDSALYYCVKDKGPGLIGSTADYYGMDVWGQGTTVTVSS
